In PMC3664923, “Structures of CD200/CD200 Receptor Family and Implications for Topology, Regulation, and Evolution” (Structure(London, England:1993), 2013):
Values joined by “and” are separate entries in the source; they are usually repeats but may differ in a detail not shown here. Equal values may be shown once. Read-outs that look alike come from different tables or passages of the source.

Columns and labels:
[1] = target: CD200R (Mus musculus) (UniProt Q9ES57); conditions: cited from earlier work
[2] = target: CD200R (Mus musculus) (UniProt Q9ES57); conditions: cited from earlier work; remark: listed apart in the source
[3] = target: mouse CD200 (residues 1-232) CD4-Bio, mutant Q27K (mouse) (UniProt O54901); test: SPR; BIAcore 3000, 25°C, HBS; wild-type and mutant CD200 CD4-Bio and CD4 control (about 650 RU each) held by OX68 mAb amine coupled to a CM5 chip; serial dilutions of soluble CD200R injected (KD from equilibrium binding), mutants tested with CD200R at 0.5 μM and given as percent of wild type
[4] = target: mouse CD200 extracellular region (residues 1-232) tagged with rat CD4 domains 3 and 4 and a biotinylation site, wild type (mouse) (UniProt O54901); test: as above
[5] = target: T1, mouse CD200RLa (residues 1-237) CD4-Bio, triple mutant N63K, K66T, and L114F (mouse); test: SPR
T1 chain: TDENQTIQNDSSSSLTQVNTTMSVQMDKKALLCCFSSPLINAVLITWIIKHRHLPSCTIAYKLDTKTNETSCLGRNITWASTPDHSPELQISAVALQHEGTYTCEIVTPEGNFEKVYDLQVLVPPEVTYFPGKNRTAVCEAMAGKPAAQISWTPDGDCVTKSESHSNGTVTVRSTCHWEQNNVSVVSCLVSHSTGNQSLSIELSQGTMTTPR

[6] = target: T2, mouse CD200RLa (residues 1-237) CD4-Bio chimeric protein, wild type (mouse); test: SPR
T2 chain: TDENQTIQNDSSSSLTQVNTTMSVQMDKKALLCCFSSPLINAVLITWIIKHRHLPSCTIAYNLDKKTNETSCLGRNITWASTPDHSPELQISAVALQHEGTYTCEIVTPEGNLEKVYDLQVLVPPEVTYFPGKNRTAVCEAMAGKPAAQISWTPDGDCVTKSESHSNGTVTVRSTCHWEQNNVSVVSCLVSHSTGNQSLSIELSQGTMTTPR

[7] = target: T3, mouse CD200R (residues 1-232) CD4-Bio chimeric protein (mouse, UniProt Q9ES57 26-232); test: SPR
T3 chain: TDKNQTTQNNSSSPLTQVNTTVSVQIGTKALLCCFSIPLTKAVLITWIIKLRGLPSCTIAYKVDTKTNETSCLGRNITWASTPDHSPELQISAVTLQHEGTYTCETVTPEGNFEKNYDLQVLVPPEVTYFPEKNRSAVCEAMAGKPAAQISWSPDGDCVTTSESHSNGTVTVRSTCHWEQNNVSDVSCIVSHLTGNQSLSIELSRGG

[8] = target: mouse CD200RLa (residues 1-237) CD4-Bio, double mutant N63K K66T (mouse); test: SPR; BIAcore 3000, 25°C; CD200R and wild-type and mutant CD200RLa CD4-Bio held by OX68 on a CM5 chip; increasing concentrations of CD200 injected; KDs by nonlinear curve fitting
[9] = target: mouse CD200RLa (residues 1-237) CD4-Bio, mutant L114F (mouse, UniProt Q6XJV4 26-237, L114F); test: as above; conditions: one partner purified

## CD200 (from UniProt P41217)
[1]
  Kd: 7 µM

## CD200 (from UniProt O54901)
[2]
  Kd: 4 µM

## mouse CD200R extracellular region with C-terminal polyhistidine tag (receptor)
[3]
  percent of wild-type binding response: 150%
[4]
  Kd: 0.5 µM

B1: mouse CD200 extracellular region with C-terminal polyhistidine tag (ligand, UniProt O54901 31-232, looked up)
chain: QVEVVTQDERKALHTTASLRCSLKTSQEPLIVTWQKKKAVSPENMVTYSKTHGVVIQPAYKDRINVTELGLWNSSITFWNTTLEDEGCYMCLFNTFGSQKVSGTACLTLYVQPIVHLHYNYFEDHLNITCSATARPAPAISWKGTGTGIENSTESHFHSNGTTSVTSILRVKDPKTQVGKEVICQVLYLGNVIDYKQSLDKG
modifications: N-linked sugars cut back to N-acetyl-glucosamine by Endoglycosidase Hf (crystallised form); NH2 terminus presumably cyclized glutamine (pyroglutamic acid)
notes: signal peptide in the construct; mouse CD200, extracellular region (two Ig-like domains), residues 1-232 of NP_034948; the range counts on the precursor; Protein in the flow-through of the concanavalin A column was crystallised; protein eluted from the column was used as the soluble ligand in SPR; also called soluble CD200; recombinant CD200
[5]
  Kd: 1.1 µM and 0.9 µM
[6]
  Kd: > 40 µM
[7]
  Kd: 0.6 µM
[8]
  Kd: 18.4 µM
[9]
  Kd: 4.2 µM
